Our source for the protein production values is a protein production outcome set (Wang et al. 2014).

A short description of this series: label from the status in PepcDB records.
For “MRIAILGGGVAGSTLAYLLSRINYEVTIFDINQHYVKPCGDIVPNIYTPPFNWKETFGIRRFSFYIDGEKIYDVEYRHTKWLVIDKWKWINDMRKSSKVIVTHDNNAKEFDYVIDSRGPYPMDREVVYTTRAIIETEEFDDEAILEFNTRYTGFYWIFPSKENEYNIGAGFLEYKNSKELLNYYLRKRFKNFEVKDIRGAPISIGSVKNKKLRIGEARGLVFPLSGEGIRPSAISAEYAFEAIHKEKDLDGFLNEKLSIIEKRIKIQKMLLDLYRYSSLNLRKTFMRIFFKNEVLIDTYLEDKMDLNGIIESLKSVRANGGIIRKFEEQERLEHHHHHH”, the protein production result is on record as “failed”.
With “MRIDAHHHLWDLSVRDQPWTSDVPALRRTFTAAELRPALERNAIDATVVVQTIAVPQETPELLALTCTDPQVRAVVGWTDLTEPGIADRLAELREQPGGSALVGIRHGIQDETDPQWPARPEVRRGITSVAAAGLVYDLLVRPDQLPSAVRAVRELPDVRFVLDHAGNPVVSPDGLVSWTALLTDLAECPNVTVKLSGLVTRTGGDPAAALRPYADVLFETMGPDRLMYGSDWPVCLLAAEYDEVVAVAESLTEELSADEREAVFGTTAARWYGIPS”, the protein production entry is listed as “failed”.
The entry for “MRIETDRLVIRDFEERDAERLYDYLANPPVRCFLDEKINSYDEALRKIRERQGQSDQGDFYAVCLKNAEWLIGEVFWVKEEPDTYSIGWNFNLNYGGKGYATEAVKAAIEELFRGGARRIYAYVEEDNLPSQRLCDRLGMRREGLFLEFISFINNPDGSPRYENTYQYAILKREWLGEGKAT” is “failed”.
As for “MRIFKALLKMEFLLTKRQLANLIMAIGMPVAFFLFFSGFMGEGLTKAIEAIYVRNYMITMAGFSSLSFAFFTFPFSMKDDQLSNRMQLLRHSPVPMWQYYLAKIIRILFYYCLAITVVFLTGHILRQVSMPIEQWMQSFLLLLGGATCFIPFGLLVSYFKNTELMSMVANICYMSLAVLGGMWMPITMFPKWLQALSKLTPTYHLTQVILSPFANSFAGFSLIILIGYGIIMLVIAYLLSQKRHSI”, the protein production entry was “failed”.
As for “MRIKLIIVEGKTDESFFKVLLEKLYGFREAKKLTPEFPIGKWGFRIGEHPLVLEKDNIALVIIHAEGKQRIPKVLKSVLDSVKLGLLNVEEVYVVRDVDEGNDVFEWVLSFLREREVRVDNGAIVTEGVKIYPYGMGNLTLNEPFVKEKKELELSLAYLAKLDGILEKYRGSMRALSQDKGDKLTPKDVMHILSIANDYTGDCLSGLYEKYIGIMIHRNRELLIRFLSEVNLLPLLERMVG”, the protein production result is on record as “not failed”.
The value for “MRILFVGPPLYGLLYPVLSLAQAFRVNGHEVLIASGGKFAQKAAEAGLVVFDAAPGFDSEAGYRRQEALRKENNIGTKMGNFSFFSEEMTDPLVAFAGQWRPDLIVYPPLGVVGPLIAAKYDIPVVMQTVGFGHTPWHIKGVTKSLSNAYRRHGVSAPPRDLAWIDVTPPSMSILQNDGEPVISMQYVPYNGGAVWEEWWERTPDRKRLLVSLGTVKPMVDGLDLISWVMDSAGEVDAEIILHLPANARSDLRSLPPNVRLVDWLPMGVFLNGADGFIHHGGAGNTLTALHAGIPQIVFGQGADRPVNARAVVERGCGIIPGKSGLTSSMINTFLGNRALREASQEVAAEMAAQPCPTEVAKKLIAMLQHG” was “failed”; that for “MRILLATDGSPQARGAEALAEWLAYKLSAPLTVLFVVDTRLARIPELLDFGALTVPVPVLRTELERALALRGEAVLERVRQSALAAGVAVEAVLEEGVPHEAILRRARAADLLVLGRSGEAHGDGFGGLGSTADRVLRASPVPVLLAPGEPVELEGALLGYDASESAVRALHALAPLARALGLGVRVVSVHEDPARAEAWALEAEAYLRDHGVEASALVLGGDAADHLLRLQGPGDLLALGAPVRRLVFGSTAERVIRNAQGPVLTAR” was “failed”.
The entry for “MRILSIIRIIGILVMCFSGTMLVPAFVALIYGDGGGKAFMQAFMLSLIAGTLLWWPCHHHKQELRSRDGFLIVVAFWLVLGSLATLPLLLFDSPHLTIASAVFEAFSGLTTTGATVMTGLDNLPKSILFYRQFLQWLGGMGIIVLAVAIIPLLGIGGTQLYRAESSGPLKDQKSLPKISEVAKALWIIYASLTVLCAIAYWLSGMNLFDAIGHSFSTISNGGFSTHDASIGYFNQASIYWVTTIFMLIGGVNFSLHISAFLALGKRNIWRNYWKDPEFRFFLTMQIIFIGIVSLSLYGYGLVSDINEAVTKGALQLTSMSMTAGYTIFDIDNLPPFIGLLLVISAVIGGCGGSTTGGLKAIRTLILWKQIDRELHSLIHPNLVQPIRIGKNRLAPRMIESIWAFFIIFILVYWGCVFAVILCGMNTFDAMGAVFATLTNAGPGLGFIHESFIGVPESAKLVFSFAMICGRLEMFSLIVLFIPSYWKK” is “failed”; for “MRISAKKPRPRPIFALCAPYPEAQPQEAEVRVRTSILAFVLAAVSTIAGAQDSGLTSLETTDAGRSWLAVGRLDIDGTGFCTGALIAPDLVLTAAHCLYDKTTGQRIDPARIEFLAGWRRGRASAYRRVARAVHHPDYLYEGAVTAERVRNDLALLKLSQPIRNTTVVPFETGNRPMRGDAVQVVSYAHDRAEAPSLQEACAVMARQQGVLVMSCDVDFGASGSPVFSLSDSTPRIVSVVSAKAEVDGARVALGTSLDDTLTFLMGELDSHKRAEIPTVPRVNRLSASGQGSASGAKFVRP” it is “failed”; for “MRITVMTAGEQIITLDVDSQETVENVKALLEVESNVPIQQQQLLYNGNEMGNSDKLSALGVKDDDLLMMMVSNASSGSATSAAGNDLGMNPDGSALNPAAFQQHIRGDSNLMGQLFQNDPELAQVISGSDLNKLQDVLRARHRQRSVLQRQKEEELALLYADPFDVEAQRKIEAAIRQKGIDENWEAALEHNPEGFARVIMLYVDMEVNGVPLKAFVDSGAQSTIISKSCAERCGLLRLMDQRYKGIAHGVGQTEILGRIHVAPIKIGNNFYPCSFVVLDSPNMEFLFGLDMLRKHQCTIDLKENVMTVGGGEVSVPFLQEKDIPSRFLDEERVPNDASSSGATVPSGFTEKKNNTVANPTSQQPKRQNTSEGPEFEAKIAKLVELGFSRDSVIQALKLFEGNEEQAAGFLFGG” it is “failed”.
Regarding “MRIYLFLNKNYKIFILFLILILNSKLAYSQRLIRIGKEEMKNKNYIQAIETLSDAIKKYPKVQLGYYFLSIAYRENNQLTEAEGALLDGIAVGGEIDYILYYELGNIMFNRGEGYYPLAIKYYSNSIKSRPNYDSALLNRANAYVQQGKITSKEKEYQKAWDSYTMAIHDYSQFITLRSKTEKKDSILLIISYLRNEKINLEQLDKSLKGRTEHIVYAKEDKNQILKDSFKDNLETNSLIELEKLNWQEELYIDE”, the protein production entry is reported as “failed”.
The entry for “MRIYLIGFMCSGKSTVGSLLSRSLNIPFYDVDEEVQKREGLSIPQIFEKKGEAYFRKLEFEVLKDLSEKENVVISTGGGLGANEEALNFMKSRGTTVFIDIPFEVFLERCKDSKERPLLKRPLDEIKNLFEERRKIYSKADIKVKGEKPPEEVVKEILLSLEGNALGG” is “not failed”; for “MRKDETSNTSPDISAAQPASALRYHLRPPRRNDGAAIHQLVSECPPLDLNSLYAYLLLCEHHAHTCVVAESPGGRIDGFVSAYLLPTRPDVLFVWQVAVHSRARGHRLGRAMLGHILERQECRHVRHLETTVGPDNQASRRTFAGLAGERGAHVSEQPFFDRQAFGGADHDDEMLLRIGPFTHPPH” it is “failed”; for “MRKELCRNFQRGSCRYGENCRFLHPQQAKPNNPFGFGTQNQQQQQQQQQQNSSNPFGFGVQSGGSSRPNQFQNTWSRTASTPTGGGAAASTQQTGKQTQPADHKCTDPAACKRVMQDDFKNERPMWKLTCYGHWKYFPCDVTGDISYEELRAVAYEEAKRGIPLQSIVERERNLQNSKIAEFENFLRNPYKGSVTANQSPFAATTPSIFPQSSQINSPSPAFSGFNQQTAFSNTNAGGLSSSGPPNAFASFNQQTTFPNTNAGGVSSSGPPNPFASFTQQSNNQQTAFSNTNAGGLSSSGPPNAFASFNKQPNAFSVNTPQPVPSGPSGFQTNPSTTFKPASFGPGPGFATTPQNNNIFGQSTPTPATNTSQNNQTAFNFNVPVASFTAPAINTTNTSSGTELQIGGDPVDSSIWLKEKWNPGEIPEQAPPDAFV” it is “failed”.
The value for “MRKFIISFCCYVFFIFTLAAQDKAPHYTVIVSLDAFRWDYPAMYDTPNLNQMAREGVKATMLPSYPASTFPNHYTLATGLVPDHNGIINNTFWDVKRRRQYSMGDPATRNNPDYYLGEPIWITAQKQGVKTGNVYWVGSDIAIKGGYPTYYREYAEKPRLTFEQRVDSTIALLEKPEAERPRLVMLYFEEPDGVTHHHGPRSVEAAAIIHRMDSLVGMLRQGIASLPFGKDVNLIVTADHGMTEISDDRVVDMNKYLRPEWCEAVDGRTPTSIFTKPEYRDSVYNALKDVPHIHVWKKEEIPAELNYGSSDRIGDIVVAPELGWQFTDVPRALKGAHGYFPQSPDMQVMFRACGPDFKAGYESKGFVNVDIYPLLAHLLKITPEKTDGQFERIKDILKDVSFLEHHHHHH” was “failed”; that for “MRKFILYWALYGLIELIMYVWLFQVIGFWPLLFIQIASSAFGVFIFKRLGGNLFRNLRDGRTVAPYLLDSLCFFIAGFLLIIPGVITTILGLLIFIPFSRKLLKPKLTKWLGNQKKHTQYYYFDM” was “failed”.
As for “MRKGLIRNGSYSILLVIYRWFCWAIVLIGIIPVNGVISLAYAATPADWNKGAYAYSAEQTPLSAILADFANSHGVDLVLGNIADNEVTAKIRADNPTLFLDRLALEHRFQWFVYNNALYVSPQDEQASVRLEISPDAAPDIKQALSGIGLIDSRFGWGELPEEGVVLVTGPKAYIDLIRNFSQQREKQDERRKVMIFPLRYASVSDRTLQYRDQKITIPGVATILNELMDGQRAAPAGASGPMPVQPDTGMEAMRDSTRSLMTRLATRTSPGRSGEASSRVTLSGKISADVRNNALLIRDDEKRRAEYQQLVEHIDVPQNLVNIDAIILDVDRTALSRLEANWQAQLGNVSAGSTMMMGRSTLFVSDFKRFFADIQALEGEGTASIVANPSVLTLENQPAIVDFSRTAFITATGERVADIQPVTAGTSLQVTPRVIGEGAQRSIQLVIDIEDGQVETGREGEASGVKRGTVSTQALIGENRALVLGGFHVEESGDRDRRIPILGDIPLLGKLFTSTRHEVSRRERLFILTPHLVGDQTDPTRYVSSVNRQQLNGAMNRVAQRNGKTDLYSLIEGAFRDLASRQLPAGFQADSKGARLGEVCRSQSGLIYDSSRYQWYGNGQVRLSVGVVRNGGTQPQRFDEAACASSRTLAVAVWPKTTLAPGESSEVFLALQPALTAQPTRRNVLISN”, the protein production entry is reported as “failed”.
The entry for “MRKISIVIPVYNTEKYLKLSVDSVLSQSYQDWELILVDDGSKDGSGAICDKYASEDSRIKVYHTVNQGVTAARGYGVEQSTGEWICFLDADDTLADDALQVMLGKSADCDIVIGNKRIVSGNDVTEEWMNQDDRQLQAVEFLDGLIRNKISQYITGRIFRRILFDNGTICIPRELIMAEDFIMNVQLGNKAKKIAVIRDMVYGYHVYGESVSHTFRTNLEYESRFCDCLFSALKTGGYYEEVKEAFTFQKVRALKSAFMAQQGRVNLRHPFLQEVRKEAKSIGLSRGWKLFLYLLPLKYIGYIFFRSLNKLEHHHHHH” is “not failed”; for “MRKITQAISAVCLLFALNSSAVALASSPSPLNPGTNVARLAEQAPIHWVSVAQIENSLAGRPPMAVGFDIDDTVLFSSPGFWRGKKNFSPESEDYLKNPVFWEKMNNGWDEFSIPKEVARQLIDMHVRRGDAIFFVTGRSPTKTETVSKTLADNFHIPATSMNPVIFAGDKPGQNTKSQWLQDKNIRIFYGDSDNDITAARDVGARGIRILRASNSTYKPLPQAGAFGEEVIVNSEY” it is “failed”.
